# B1: Nb190, wild type, purified from E. coli (VHH)
# VHH: QVQLQESGGGLVQAGGSLRLSCAASGSIFSINTMGWYRQAPGKQRELVAFATSGGSTNYPDSVKGRFTISRDNVKNTVYLQMNSLKPEDTAVYYCNIDGFLGSLYKDYWSQGTQVTVSS
# Target: T1, HIV-1 Rev protein (mobility shift assay, bound to stem-loop IIB RRE RNA) (HIV-1, strain  for this …, UniProt P04618)
# T1 construct: also called IIB associated Rev
# Assay: native gel or EMSA
# Conditions: both partners purified
# T1 sequence (P04618 whole entry): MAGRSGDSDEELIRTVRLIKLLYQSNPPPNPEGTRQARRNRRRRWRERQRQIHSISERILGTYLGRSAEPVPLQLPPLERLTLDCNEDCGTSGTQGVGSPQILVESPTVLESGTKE
binder,measurement,value
B1,binding result,binds

# Source: article PMC3615019, “Mapping the Binding Interface between an HIV-1 Inhibiting Intrabody and the Viral Protein Rev” (PLoS ONE, 2013)
